Our source for the koff and Kd values is paper PMC8166883 (2020).

To fix the notation:
B1: anti-hVEGF-A clone A033AM-19 (affinity-matured from A033) (antibody, V domains shown)
VH: EVELVQSGAEVKKPGSSVKVSCKASGGTFSDYSISWVRQAPGQGLEWMGGIIPIFGTPNYAQKFQGRVTITADESTSTAYMELSSLRSEDTAVYYCADGGAYCGGDCYSGYYYYGMDVWGQGTTVTVSS
VL: QSALTQPASVSGSPGQSITISCTGTSSDVGGYNLVSWYQQHPGKAPKLMIYQDNNKRPSGVSNRFSGSKSGNTASLTISGLQAEDEADYYCSYTNDSNSQVFGGGTKLTVL
B2: anti-hVEGF-A clone A033 (antibody, V domains shown)
VH: B1 VH with D31S, S33A
VL: B1 VL
B3: FLAG-tagged human vascular endothelial growth factor-A (FLAG-hVEGF-A) (ligand)
chain: APMAEGGGQNHHEVVKFMDVYQRSYCHPIETLVDIFQEYPDEIEYIFKPSCVPLMRCGGCCNDEGLECVPTEESNITMQIMRIKPHQGQHIGEMSFLQHNKCECRPKKDRARQENPCGPCSERRKHLFVQDPQTCKCSCKNTDSRCKARQLELNERTCRCDKPRR

What all share (test): SPR
A general note: Surface plasmon resonance follows binding to a sensor surface in real time, without labels.

The target in assay [1] is B3.
The target of assay [2] is B015.
The target of assay [3] is B021.

Where a chain is given by its changes, count along the chain named.

Consider B1, for which the koff – broadly, the rate constant with which the complex falls apart – in assay [1] was 0.000411 s⁻¹.
On to B2, for which the koff in assay [1] was 0.00405 s⁻¹.
Consider B3, for which the Kd (in general, the constant that tells how readily two partners part at equilibrium) in assay [2] turned out to be 0.0294 nM; in assay [3] it was 0.903 nM. In addition, the koff in assay [2] is 0.000549 s⁻¹; in assay [3] it was 0.000577 s⁻¹.
